We go through five molecules from paper PMC3303795, “Incorporation of Noncanonical Amino Acids into Rosetta and Use in Computational Protein-Peptide Interface Design” (PLoS ONE, 2012).

One assay concerns the target T1, porcine calpain-1 (Sus scrofa, UniProt P04574).
T1 construct: GST (N, cleaved yes); made in house; host or cells: E. coli (pET41b vector)
T1 sequence (P04574 94-266 limits assumed): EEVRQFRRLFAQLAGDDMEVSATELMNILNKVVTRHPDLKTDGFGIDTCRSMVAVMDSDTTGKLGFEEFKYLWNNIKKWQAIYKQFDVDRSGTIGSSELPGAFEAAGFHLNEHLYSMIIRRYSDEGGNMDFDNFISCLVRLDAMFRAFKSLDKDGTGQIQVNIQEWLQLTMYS
As to the kind of experiment: Fluorescence polarization binding assay of labelled calpastatin peptides with purified calpain. The following applies: calpain titrated into 500 nM labelled peptide; 50 mM NaP, 50 mM NaCl, 5 mM BME, 1 mM CaCl2, 1 mM EDTA, pH 8.0; room temperature; 3 polarization readings averaged per concentration; single state binding model; read-out: Experimental KD. The protocol: Calpain was expressed as a GST-fusion protein in E. coli that had been transfected with a pet41b vector that contained the gene encoding porcine calpain-1. The cells were grown in Luria-Bertani broth with 50 ug/ml kanamycin at 37 degrees Celsius to an OD600 of 0.6 at which point 1 mM isopropyl β-D-1-thiogalactopyranoside (IPTG) was added to induce expression. Cells were grown for an additional 4 hours and harvested by centrifugation. Cells were resuspended in a buffer containing 50 mM NaPO4, 150 mM NaCl, 5 mM BME at pH 8.0 and lysed by sonication. Lysate was centrifuged at 12500 g for 30 minutes and the supernatant was run over a GSTrap-FF column that had been equilibrated with the lysis buffer. After loading, the column was washed with 10 column volumes of the lysis buffer before the GST-calpain was eluted with 50 mM Tris and 10 mM reduced glutithione, pH 8.0. The eluent was monitored by absorbance at 280 nm.5 mL fractions were collected. Those fractions which absorbed at 280 nm were pooled. Thrombin was added to separate the calpain from the GST and the cleavage reaction was allowed to cleave overnight at 4 Celsius. To remove the GST the protein was further purified with a Sephacryl S-200 gel filtration column using a buffer containing 50 mM NaPO4, 50 mM NaCl, 5 mM BME, 1 mM CaCl2, 1 mM EDTA at pH 8.0. The protein was concentrated through centrifugation via a spin column with a 15 K molecular weight cutoff and found to be pure and ran true to predicted size on SDS-PAGE gels.
Purified calpain was manually titrated in to a solution containing 500 nM calpastatin with 50 mM NaP, 50 mM NaCl, 5 mM BME, 1 mM CaCl2, 1 mM EDTA at pH 8.0, till the change in fluorescence polarization reached a plateau. Binding assays were performed at room temperature, 3 polarization readings were averaged for each concentration. Disassociation constants were calculated by fitting the data to a single state binding model using Sigma plot software.

The target in assay [1] is T2, calpastatin peptide Ser607 to norvaline (5FAM–βALA–PDDAIDAL(NVL)DDFTS-amide).
T2 chain: PDDAIDALXDDFTS
The assay is described as follows: fluorescence polarisation; purified calpain manually titrated into 500 nM labelled calpastatin peptide; 50 mM NaP, 50 mM NaCl, 5 mM BME, 1 mM CaCl2, 1 mM EDTA, pH 8.0; room temperature; single state binding model. In general terms: In fluorescence polarisation assays a small probe gives low polarisation when free and higher when bound to something large.

Assay [2] addresses T3, wild type calpastatin subdomain C peptide, 5FAM-labelled (5FAM–βALA–…-amide).
T3 chain: PDDAIDALSDDFTS
Described as above.

Assay [3] deals with T4, wild type calpastatin subdomain C peptide, FITC-labelled (FITC–βALA–…-amide).
T4 chain: PDDAIDALSDDFTS
The assay is described as above.

Assay [4] deals with T5, calpastatin peptide Asp609 to homoserine (5FAM–βALA–…(HSE)–FTS-amide).
T5 chain: PDDAIDALSDXFTS
The description is as above.

The target of assay [5] is T6, calpastatin peptide Ser607 to amino butyric acid (5FAM–βALA–PDDAIDAL(ABU)DDFTS-amide).
T6 chain: PDDAIDALXDDFTS
The description is as above.

Assay [6] addresses T7, calpastatin peptide Asp609 to 1-methyl-histidine (5FAM–βALA–…(1MH)FTS-amide).
T7 chain: PDDAIDALSDHFTS
Described as above.

In assay [7] the target is T8, calpastatin peptide Phe610 to 4-methyl-phenylalanine (FITC–βALA–…(4MF)TS-amide).
T8 chain: PDDAIDALSDDFTS
The assay is described as above.

The target of assay [8] is T4, wild type calpastatin subdomain C …. The assay is described as above.

Broadly, the Kd is the constant that tells how readily two partners part at equilibrium.

Like-named read-outs stand apart in the source and are kept apart here. Where a SMILES comes first, the peptide text is derived from it. [ ]: non-standard residue; d: D form. The star is where a group is joined. 5FAM = O=C1OC2(c3ccc(O)cc3Oc3cc(O)ccc32)c2ccc(C(=O)*)cc21; hSer = N[C@@H](CCO)C(=O)O; Nva = CCC[C@H](N)C(=O)O; Abu = CC[C@H](N)C(=O)O; βAla = NCCC(=O)O

In the case of `CC[C@H](C)[C@H](NC(=O)[C@H](C)NC(=O)[C@H](CC(=O)O)NC(=O)[C@H](CC(=O)O)NC(=O)[C@@H]1CCCN1C(=O)CCNC(=O)c1ccc2c(c1)C(=O)OC21c2ccc(O)cc2Oc2cc(O)ccc21)C(=O)N[C@@H](CC(=O)O)C(=O)N[C@@H](C)C(=O)N[C@@H](CC(C)C)C(=O)N[C@@H](CO)C(=O)N[C@@H](CC(=O)O)C(=O)N[C@@H](CCO)C(=O)N[C@@H](Cc1ccccc1)C(=O)N[C@H](C(=O)N[C@@H](CO)C(N)=O)[C@@H](C)O` [HSE (5FAM)] ({5FAM-βAla}-PDDAIDALSD[hSer]FTS-NH2), the Kd at porcine calpain-1 was 7.48 ± 0.68 µM.

With `CC[C@H](NC(=O)[C@H](CC(C)C)NC(=O)[C@H](C)NC(=O)[C@H](CC(=O)O)NC(=O)[C@@H](NC(=O)[C@H](C)NC(=O)[C@H](CC(=O)O)NC(=O)[C@H](CC(=O)O)NC(=O)[C@@H]1CCCN1C(=O)CCNC(=O)c1ccc2c(c1)C(=O)OC21c2ccc(O)cc2Oc2cc(O)ccc21)[C@@H](C)CC)C(=O)N[C@@H](CC(=O)O)C(=O)N[C@@H](CC(=O)O)C(=O)N[C@@H](Cc1ccccc1)C(=O)N[C@H](C(=O)N[C@@H](CO)C(N)=O)[C@@H](C)O` [ABU (5FAM)] ({5FAM-βAla}-PDDAIDAL[Abu]DDFTS-NH2), the Kd at porcine calpain-1 was 5.8 ± 1.2 µM.

On to `CCC[C@H](NC(=O)[C@H](CC(C)C)NC(=O)[C@H](C)NC(=O)[C@H](CC(=O)O)NC(=O)[C@@H](NC(=O)[C@H](C)NC(=O)[C@H](CC(=O)O)NC(=O)[C@H](CC(=O)O)NC(=O)[C@@H]1CCCN1C(=O)CCNC(=O)c1ccc2c(c1)C(=O)OC21c2ccc(O)cc2Oc2cc(O)ccc21)[C@@H](C)CC)C(=O)N[C@@H](CC(=O)O)C(=O)N[C@@H](CC(=O)O)C(=O)N[C@@H](Cc1ccccc1)C(=O)N[C@H](C(=O)N[C@@H](CO)C(N)=O)[C@@H](C)O` [NVL (5FAM)] ({5FAM-βAla}-PDDAIDAL[Nva]DDFTS-NH2), for which the Kd at porcine calpain-1 stood at 8.56 ± 0.95 µM.

Consider `CC[C@H](C)[C@H](NC(=O)[C@H](C)NC(=O)[C@H](CC(=O)O)NC(=O)[C@H](CC(=O)O)NC(=O)[C@@H]1CCCN1C(=O)CCNC(=O)c1ccc2c(c1)C(=O)OC21c2ccc(O)cc2Oc2cc(O)ccc21)C(=O)N[C@@H](CC(=O)O)C(=O)N[C@@H](C)C(=O)N[C@@H](CC(C)C)C(=O)N[C@@H](CO)C(=O)N[C@@H](CC(=O)O)C(=O)N[C@@H](CC(=O)O)C(=O)N[C@@H](Cc1ccccc1)C(=O)N[C@H](C(=O)N[C@@H](CO)C(N)=O)[C@@H](C)O` [WT (5FAM), reference compound] ({5FAM-βAla}-PDDAIDALSDDFTS-NH2), for which the Kd on porcine calpain-1 is 6.6 ± 0.65 µM.

B1: porcine calpain-1 (enzyme)
chain: T1 sequence (P04574 94-266 limits assumed)
modifications: not checked
Consider B1, for which the Kd in [1] worked out at 8.56 µM; in [2], 6.6 µM; in [3] it was 5.77 µM; in [4] it was 7.48 µM; in [5] it was 5.8 µM; in assay [6], 5.81 µM. Besides, the results for the Kd in [7] and in assay [8] were 2.6 µM and 5800 µM, respectively.
